Data taken from patent US20250084176A1 (F STAR BETA, published 2025).

T1: cCD137-mFc-Avi (cynomolgus; mouse, one biotin on the Avi sequence of each monomer (BirA); unbiotinylated in the SPR of Example 5.6)
T1 construct: also called cyno CD137-mFc-Avi; dimeric cynomolgus CD137; not shown: mouse IgG2a Fc domain (mIgG2a Fc)
T1 chain: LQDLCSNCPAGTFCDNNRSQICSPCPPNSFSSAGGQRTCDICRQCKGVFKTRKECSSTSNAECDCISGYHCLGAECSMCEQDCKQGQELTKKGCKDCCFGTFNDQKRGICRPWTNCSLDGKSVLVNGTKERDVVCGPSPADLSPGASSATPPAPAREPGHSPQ

T2: human GITR (human, UniProt Q9Y5U5 26-161, limits assumed)
T2 sequence (looked up): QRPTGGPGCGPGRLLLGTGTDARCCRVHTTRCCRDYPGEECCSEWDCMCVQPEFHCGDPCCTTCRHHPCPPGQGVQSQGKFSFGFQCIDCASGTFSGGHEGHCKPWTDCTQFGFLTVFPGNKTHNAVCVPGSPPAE

T3: human OX40 (human, UniProt P43489 29-216, limits assumed)
T3 sequence (looked up): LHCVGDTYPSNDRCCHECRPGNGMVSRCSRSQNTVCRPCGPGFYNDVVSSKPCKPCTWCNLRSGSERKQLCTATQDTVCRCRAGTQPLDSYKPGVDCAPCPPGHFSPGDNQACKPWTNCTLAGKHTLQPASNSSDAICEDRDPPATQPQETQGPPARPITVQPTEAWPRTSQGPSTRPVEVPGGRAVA

T4: mouse GITR (mouse, UniProt O35714 20-153, limits assumed, biotinylated (EZ-Link Sulfo-NHS-SS-Biotin))
T4 sequence (looked up): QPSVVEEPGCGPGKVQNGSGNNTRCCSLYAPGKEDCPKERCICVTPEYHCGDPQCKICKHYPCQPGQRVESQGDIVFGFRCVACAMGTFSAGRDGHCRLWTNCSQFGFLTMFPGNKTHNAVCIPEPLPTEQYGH

T5: mouse CD137 ligand on DO11.10 cells (mouse, UniProt P41274 1-309)
T5 construct: whole, on cells
T5 sequence (looked up): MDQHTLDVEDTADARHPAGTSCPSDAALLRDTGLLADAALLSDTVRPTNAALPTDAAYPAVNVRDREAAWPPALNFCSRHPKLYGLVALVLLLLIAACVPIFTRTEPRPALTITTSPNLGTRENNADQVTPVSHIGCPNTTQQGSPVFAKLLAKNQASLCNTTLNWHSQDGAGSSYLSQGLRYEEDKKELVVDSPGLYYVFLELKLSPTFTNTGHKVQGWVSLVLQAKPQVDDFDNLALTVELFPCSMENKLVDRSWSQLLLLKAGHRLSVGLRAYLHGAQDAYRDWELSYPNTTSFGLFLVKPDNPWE

B1: FS22-053-014/HelD1.3 (bispecific antibody, human IgG1, kappa)
heavy: QVQLQESGPGLVRPSQTLSLTCTVSGSTFSGYGVNWVRQPPGRGLEWIGMIWGDGNTDYNSALKSRVTMLVDTSKNQFSLRLSSVTAADTAVYYCARERDYRLDYWGQGSLVTVSSASTKGPSVFPLAPSSKSTSGGTAALGCLVKDYFPEPVTVSWNSGALTSGVHTFPAVLQSSGLYSLSSVVTVPSSSLGTQTYICNVNHKPSNTKVDKKVEPKSCDKTHTCPPCPAPELLGGPSVFLFPPKPKDTLMISRTPEVTCVVVDVSHEDPEVKFNWYVDGVEVHNAKTKPREEQYNSTYRVVSVLTVLHQDWLNGKEYKCKVSNKALPAPIEKTISKAKGQPREPQVYTLPPSRDELNPPYLFSNQVSLTCLVKGFYPSDIAVEWESNGQPENNYKTTPPVLDSDGSFFLYSKLTVYHWRWLDGNVFSCSVMHEALHNHYTQKSLSLSPG
light: DIQMTQSPASLSASVGETVTITCRASGNIHNYLAWYQQKQGKSPQLLVYNAKTLADGVPSRFSGSGSGTQYSLKINSLQPEDFGSYYCQHFWSTPRTFGGGTKLEIKRTVAAPSVFIFPPSDEQLKSGTASVVCLLNNFYPREAKVQWKVDNALQSGNSQESVTEQDSKDSTYSLSSTLTLSKADYEKHKVYACEVTHQGLSSPVTKSFNRGEC
notes: Mock mAb^2, IgG1 without LALA; also called FS22-053-14; FS22-053-014/HeID1.3
B2: FS22m-063/HelD1.3 (bispecific antibody, human IgG1, kappa)
heavy: QVQLQESGPGLVRPSQTLSLTCTVSGSTFSGYGVNWVRQPPGRGLEWIGMIWGDGNTDYNSALKSRVTMLVDTSKNQFSLRLSSVTAADTAVYYCARERDYRLDYWGQGSLVTVSSASTKGPSVFPLAPSSKSTSGGTAALGCLVKDYFPEPVTVSWNSGALTSGVHTFPAVLQSSGLYSLSSVVTVPSSSLGTQTYICNVNHKPSNTKVDKKVEPKSCDKTHTCPPCPAPELLGGPSVFLFPPKPKDTLMISRTPEVTCVVVDVSHEDPEVKFNWYVDGVEVHNAKTKPREEQYNSTYRVVSVLTVLHQDWLNGKEYKCKVSNKALPAPIEKTISKAKGQPREPQVYTLPPSRDEPYWSYVSLTCLVKGFYPSDIAVEWESNGQPENNYKTTPPVLDSDGSFFLYSKLTVMNYRWELGNVFSCSVMHEALHNHYTQKSLSLSPG
light: B1 light
notes: also called FS22m-063 in HeID1.3 mock mAb^2 format
B3: mCD137-mFc-Avi (Fc fusion)
chain: VQNSCDNCQPGTFCRKYNPVCKSCPPSTFSSIGGQPNCNICRVCAGYFRFKKFCSSTHNAECECIEGFHCLGPQCTRCEKDCRPGQELTKQGCKTCSLGTFNDQNGTGVCRPWTNCSLDGRSVLKTGTTEKDVVCGPPVVSFSPSTTISVTPEGGPGGHSLQVL
modifications: one biotin on the Avi sequence of each monomer (BirA); unbiotinylated in the SPR of Example 5.6
notes: also called mouse CD137-mFc-Avi; dimeric mouse CD137; not shown: mouse IgG2a Fc domain (mIgG2a Fc)

Columns and labels:
[1] = molecular target: T6, hCD137-mFc-Avi (human; mouse, UniProt Q07011 24-186, one biotin on the Avi sequence of each monomer (BirA); unbiotinylated in the SPR of Example 5.6); assay: SPR (Biacore T200), mAb2 captured by anti-human Fab, hCD137-mFc in solution, 1:1 Langmuir
T6 construct: Made in-house in HEK293-6E; also called human CD137-mFc-Avi; dimeric human CD137; not shown: mouse IgG2a Fc domain (mIgG2a Fc)
Description: For the hCD137-mFc-Avi antigen the following method was used: an anti-human Fab molecule was immobilised on a CM5 chip to a surface density of between 9,000 and 11,000 response units (RU). The antibodies were diluted to 4 μg/ml in HBS-EP buffer and captured by the anti-Fab molecule with a flow rate of […].
For mCD137-mFc-Avi binding kinetic determination, a different approach was used. […] The analysis of the data was done using the Biacore T200 evaluation software. Curves were subtracted against a blank flow cell and fitted using a 1:1 Langmuir binding model with mass transfer, setting RI to zero as constant and Rₘₐₓ to local.

[2] = molecular target: B3; assay: SPR (Biacore), mAb2 captured by anti-human Fab, antigen in solution, 1:1 Langmuir
Description: (§1) An anti-human Fab capture antibody was immobilised on all four flow cells of a CM5 series S chip (GE Healthcare #BR-1005-30) to an average surface density of 6000 RU following the manufacturer's recommendations (GE Healthcare, human Fab capture Kit, #28958325). IEach mAb² was captured to approximately 150 RU by injecting a 3 μg/ml solution of mAb² diluted in HBS-EP+ buffer (GE Healthcare #BR1006-69) for 60 seconds at 30 μl/min. Then different concentrations of human, cyno or mouse CD137 antigen (unbiotinylated human, cyno or mouse CD137-mFc-Avi or human CD137-Avi-His) in HBS-EP+ buffer were flowed over the chip for 3 min at 60 μl/min and then allowed to dissociate for 10 minutes. After each antigen concentration the chip was regenerated by infecting 10 mM glycine pH 2.1 at a flow rate of 30 μl/min for 30 seconds. Buffer HBS-EP+ was injected before the highest concentration of antigen and after the lowest concentration of antigen for reference subtraction, and one of the concentrations at random was repeated twice. The binding kinetics were fit with a 1:1 Langmuir model to generate equilibrium binding constants (KD) for each sample. Data analysis was performed with BiaEvaluation software version 3.2.

[3] = molecular target: T7, hCD137-Avi-His (human, UniProt Q07011 24-186, single biotin on the Avi sequence (BirA); unbiotinylated in the SPR of Example 5.6); assay: as above
T7 construct: also called human CD137-Avi-His; monomeric human CD137
Description: as §1

[4] = molecular target: T6, hCD137-mFc-Avi; assay: as above
Description: as §1

[5] = molecular target: T1, cCD137-mFc-Avi; assay: as above
Description: as §1

[6] = molecular target: T2, human GITR; assay: SPR (Biacore T200), receptor amine-coupled to CM5 chip
Description: (§2) The specificity of the anti-human CD137 Fcabs for human CD137 compared to other related TNFSFR family members was tested. 8 of the Fcabs were tested in mock mAb² (HeID1.3) format and measured by SPR in a Biacore T200 (GE Healthcare) by testing for binding to other human TNFRSF receptors: CD40, OX40 and GITR. Amine coupling (amine coupling kit, GE Healthcare, BR-1000-50) was used to coat human CD40, GITR and OX40 to approximately 1000 RU in Biacore CM5 chips (GE Healthcare, cat no 29149603). […] The chip was regenerated by injection of 10 mM glycine pH 2.5 for 12 s at 30 μl/min. Antibodies specific to the different TNFRSF members were used as positive controls to verify Biacore chip coating. Data was double reference subtracted and analysed using BIAevaluation 3.2 software.

[7] = molecular target: T3, human OX40; assay: as above
Description: as §2

[8] = molecular target: human CD40 (human, UniProt P25942 21-193); assay: as above
Description: as §2

[9] = molecular target: T8, mouse CD137, full length, on cells (mouse, UniProt P20334 24-256); assay: cell-based or functional assay
[10] = molecular target: human CD137, full length, on cells (human, UniProt Q07011 24-255); assay: cell-based or functional assay
[11] = molecular target: T4, mouse GITR; assay: BLI (Octet QKe), biotinylated receptor on streptavidin sensors
Description: (§3) The specificity of the anti-mouse CD137 Fcabs for mouse CD137 was tested in HeID1.3 “mock” mAb² format and measured by BLI in an Octet QKe system by testing for binding of the Fcabs to other mouse TNFRSF receptors (CD40, OX40, GITR). […] Anti-mouse CD137 Fcabs in mock mAb² format were diluted 1:1 in kinetic buffer (PALL 18-1092) to a final concentration of at least 1 μM. Antigen-coated sensors were dipped into the mAb² solutions for 180 seconds followed by 180 seconds in 1× kinetic buffer. Antibodies for each of the TNFRSF receptors were used as positive controls.

[12] = molecular target: mouse CD40 (mouse, UniProt P27512 24-193, limits assumed, biotinylated (EZ-Link Sulfo-NHS-SS-Biotin)); assay: as above
Description: as §3

[13] = molecular target: T8, mouse CD137, full length, on cells; assay: cell-based or functional assay; remark: listed apart in the source
[14] = molecular target: T5, mouse CD137 ligand on DO11.10 cells; assay: flow cytometry, detection with anti mouse Fc fragment antibody
Description: In more detail, materials from the same production lot were mixed together and analysed for stability and purity by size-exclusion high-performance liquid chromatography (SE-HPLC), SDS polyacrylamide gel electrophoresis (SDS-PAGE), and size-exclusion chromatography with multi-angle light scattering (SEC-MALS). […] Cells were incubated with the CD137 antigens for 1 hour, and then a fluorescently-labelled anti mouse Fc fragment antibody was used to detect cell binding.

T6 sequence (Q07011 24-186): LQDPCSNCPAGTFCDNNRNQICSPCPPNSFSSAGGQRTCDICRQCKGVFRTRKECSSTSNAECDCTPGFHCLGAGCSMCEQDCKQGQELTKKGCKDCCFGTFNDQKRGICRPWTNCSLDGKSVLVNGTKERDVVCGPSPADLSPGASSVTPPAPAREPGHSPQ
Sequence of human CD40 (P25942 21-193 limits assumed): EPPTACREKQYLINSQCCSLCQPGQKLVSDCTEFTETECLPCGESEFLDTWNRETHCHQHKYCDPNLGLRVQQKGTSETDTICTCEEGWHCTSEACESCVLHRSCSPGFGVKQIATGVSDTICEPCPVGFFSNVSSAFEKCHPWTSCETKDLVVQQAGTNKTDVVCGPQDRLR
T7 sequence (Q07011 24-186): as the sequence (Q07011 24-186) above
Sequence of human CD137, full length, on cells (Q07011 24-255): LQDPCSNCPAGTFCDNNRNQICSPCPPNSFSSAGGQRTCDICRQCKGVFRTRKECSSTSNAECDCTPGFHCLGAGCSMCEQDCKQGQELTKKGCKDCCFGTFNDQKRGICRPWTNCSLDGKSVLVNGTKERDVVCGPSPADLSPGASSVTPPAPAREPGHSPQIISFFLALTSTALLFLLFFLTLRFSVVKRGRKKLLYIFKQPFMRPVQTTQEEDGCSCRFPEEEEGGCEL
Sequence of mouse CD40 (P27512 24-193 limits assumed): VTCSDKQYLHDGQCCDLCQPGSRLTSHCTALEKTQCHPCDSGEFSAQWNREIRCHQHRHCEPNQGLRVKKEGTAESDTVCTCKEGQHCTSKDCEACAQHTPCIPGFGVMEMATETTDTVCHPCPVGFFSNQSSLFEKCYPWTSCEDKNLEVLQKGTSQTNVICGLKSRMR

Binder	Kd [1] [nM]	koff [1] [s⁻¹]	kon [1] [M⁻¹ s⁻¹]	Kd [2] [nM]	Human monomeric CD137 KD fold difference relative to human dimeric KD [3] [fold]	Kd [4] [nM]	Kd [5] [nM]	binding result [6]	binding result [7]	binding result [8]	IL-2 release, mouse CD137 DO11.10 T cell activation assay, Protein L: +XL EC50 [9] [nM]	IL-2 release, mouse CD137 DO11.10 T cell activation assay, Protein L: +XL Emax [9] [pg/mL]	IL-2 release, human CD137 DO11.10 T cell activation assay, Protein L: +XL EC50 [10] [nM]	binding result [11]	binding result [12]	NF-kB luciferase reporter (HEK.FRT.luc.mCD137), Protein L crosslinked: EC50 [13] [nM]	NF-kB luciferase reporter (HEK.FRT.luc.mCD137): fold-change in activity upon crosslinking [13] [fold]	binding result [14]
B1	4.4	0.000366	83000	24	100	3.2	0.9	no binding (tested: starting at 1 µM)	no binding (tested: starting at 1 µM)	no binding (tested: starting at 1 µM)	2.04	28100	0.73					
B2											0.39	24200		no binding (tested: at least 1 µM)	no binding (tested: at least 1 µM)	1.44	27	
B3																		binds
